Data on 4 molecules can be found in patent US20220204643A1 (published 2022).

Experiment [1] deals with T1, coiled-coil domain containing 102A, transcript variant X1 (human, UniProt Q96A19 1-550).
T1 construct: HuProt array protein, full-length recombinant from yeast; also called CCDC102A

Experiment [2] addresses T2, NCCRP1, F-box associated domain containing (human, UniProt Q6ZVX7 1-275).
T2 construct: HuProt array protein, full-length recombinant from yeast
T2 sequence: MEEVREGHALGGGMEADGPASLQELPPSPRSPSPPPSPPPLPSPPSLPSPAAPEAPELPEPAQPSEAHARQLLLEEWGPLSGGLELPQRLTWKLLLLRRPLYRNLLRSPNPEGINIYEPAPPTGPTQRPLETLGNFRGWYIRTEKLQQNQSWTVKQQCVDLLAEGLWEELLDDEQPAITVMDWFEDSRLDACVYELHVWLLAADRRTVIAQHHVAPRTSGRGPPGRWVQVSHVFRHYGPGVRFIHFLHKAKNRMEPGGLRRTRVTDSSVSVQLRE

The target of experiment [3] is T3, RNA binding motif protein 47, transcript variant X10 (human, UniProt A0AV96 1-593).
T3 construct: HuProt array protein, full-length recombinant from yeast; also called RBM47
T3 sequence: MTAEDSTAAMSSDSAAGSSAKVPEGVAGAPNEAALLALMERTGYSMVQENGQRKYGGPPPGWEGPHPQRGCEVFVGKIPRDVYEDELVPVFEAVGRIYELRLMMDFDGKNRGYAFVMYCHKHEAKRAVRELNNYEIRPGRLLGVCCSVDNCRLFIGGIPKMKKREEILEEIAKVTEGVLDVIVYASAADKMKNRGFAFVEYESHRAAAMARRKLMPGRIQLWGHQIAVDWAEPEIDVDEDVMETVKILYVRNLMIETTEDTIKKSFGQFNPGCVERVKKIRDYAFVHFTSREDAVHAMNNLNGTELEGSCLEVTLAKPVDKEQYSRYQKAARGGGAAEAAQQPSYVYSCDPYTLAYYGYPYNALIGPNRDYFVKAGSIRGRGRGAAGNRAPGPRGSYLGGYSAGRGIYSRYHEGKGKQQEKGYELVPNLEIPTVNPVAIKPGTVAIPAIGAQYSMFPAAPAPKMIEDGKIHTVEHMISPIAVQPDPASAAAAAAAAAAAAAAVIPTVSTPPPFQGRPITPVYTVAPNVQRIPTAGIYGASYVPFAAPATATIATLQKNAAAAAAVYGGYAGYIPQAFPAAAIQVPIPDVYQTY

The target of experiment [4] is T4, Microtubule associated scaffold protein 1 (human, UniProt Q9ULD2 875-1270).
T4 construct: HuProt array protein, full-length recombinant from yeast; also called MTUS1
T4 sequence: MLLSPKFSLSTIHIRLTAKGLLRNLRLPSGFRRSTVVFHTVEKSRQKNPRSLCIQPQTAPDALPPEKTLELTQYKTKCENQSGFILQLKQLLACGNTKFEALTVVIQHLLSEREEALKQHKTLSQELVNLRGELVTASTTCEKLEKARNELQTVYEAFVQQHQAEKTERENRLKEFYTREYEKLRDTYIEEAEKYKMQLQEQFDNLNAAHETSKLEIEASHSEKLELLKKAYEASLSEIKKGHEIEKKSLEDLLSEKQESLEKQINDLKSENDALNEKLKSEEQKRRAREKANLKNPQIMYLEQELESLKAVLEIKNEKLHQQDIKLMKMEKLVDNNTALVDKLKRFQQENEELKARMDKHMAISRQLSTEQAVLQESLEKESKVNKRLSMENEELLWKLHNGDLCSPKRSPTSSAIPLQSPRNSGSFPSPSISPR

The target of experiment [5] is T5, RAD1 checkpoint DNA exonuclease, transcript variant 1 (human, UniProt O60671 1-282).
T5 construct: HuProt array protein, full-length recombinant from yeast
T5 sequence: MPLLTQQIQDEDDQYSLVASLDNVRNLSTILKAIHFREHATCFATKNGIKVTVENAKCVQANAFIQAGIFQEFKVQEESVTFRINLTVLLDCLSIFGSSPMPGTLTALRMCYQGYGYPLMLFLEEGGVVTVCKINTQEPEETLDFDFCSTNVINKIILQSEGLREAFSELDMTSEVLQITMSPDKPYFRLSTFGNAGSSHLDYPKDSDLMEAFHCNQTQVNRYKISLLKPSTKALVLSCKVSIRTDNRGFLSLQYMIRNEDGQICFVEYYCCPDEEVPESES

Experiment [6] addresses T6, Atpase secretory pathway ca2+ transporting 1 (human, UniProt P98194 1-909).
T6 construct: HuProt array protein, full-length recombinant from yeast; also called ATP2C1
T6 sequence: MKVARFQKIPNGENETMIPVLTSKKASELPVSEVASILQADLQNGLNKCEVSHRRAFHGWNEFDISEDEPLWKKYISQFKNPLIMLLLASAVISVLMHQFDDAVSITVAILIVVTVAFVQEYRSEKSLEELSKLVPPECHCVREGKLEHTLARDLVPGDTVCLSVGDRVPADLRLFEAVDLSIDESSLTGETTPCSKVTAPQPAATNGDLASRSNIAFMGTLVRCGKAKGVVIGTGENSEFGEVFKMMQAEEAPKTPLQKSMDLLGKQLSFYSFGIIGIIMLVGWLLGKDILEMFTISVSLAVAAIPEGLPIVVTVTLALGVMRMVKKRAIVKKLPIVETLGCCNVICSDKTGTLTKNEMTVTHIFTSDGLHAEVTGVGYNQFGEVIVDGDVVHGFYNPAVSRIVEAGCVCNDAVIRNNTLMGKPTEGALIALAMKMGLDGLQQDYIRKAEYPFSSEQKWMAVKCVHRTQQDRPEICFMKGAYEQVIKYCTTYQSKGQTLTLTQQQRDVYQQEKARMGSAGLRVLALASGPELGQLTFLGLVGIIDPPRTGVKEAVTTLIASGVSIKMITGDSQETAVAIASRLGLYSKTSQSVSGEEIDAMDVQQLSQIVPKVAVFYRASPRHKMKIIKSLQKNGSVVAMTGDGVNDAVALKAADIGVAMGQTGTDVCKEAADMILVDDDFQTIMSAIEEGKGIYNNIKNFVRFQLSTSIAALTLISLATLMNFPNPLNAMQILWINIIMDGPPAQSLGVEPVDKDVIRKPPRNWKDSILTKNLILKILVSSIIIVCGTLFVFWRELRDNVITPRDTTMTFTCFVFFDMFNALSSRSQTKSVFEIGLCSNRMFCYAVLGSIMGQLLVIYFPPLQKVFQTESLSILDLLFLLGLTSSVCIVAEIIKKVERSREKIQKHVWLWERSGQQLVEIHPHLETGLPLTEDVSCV

In experiment [7] the target is T7, teashirt zinc finger homeobox 2, transcript variant 1 (human, UniProt Q9NRE2 1-1034).
T7 construct: HuProt array protein, full-length recombinant from yeast; also called TSHZ2
T7 sequence: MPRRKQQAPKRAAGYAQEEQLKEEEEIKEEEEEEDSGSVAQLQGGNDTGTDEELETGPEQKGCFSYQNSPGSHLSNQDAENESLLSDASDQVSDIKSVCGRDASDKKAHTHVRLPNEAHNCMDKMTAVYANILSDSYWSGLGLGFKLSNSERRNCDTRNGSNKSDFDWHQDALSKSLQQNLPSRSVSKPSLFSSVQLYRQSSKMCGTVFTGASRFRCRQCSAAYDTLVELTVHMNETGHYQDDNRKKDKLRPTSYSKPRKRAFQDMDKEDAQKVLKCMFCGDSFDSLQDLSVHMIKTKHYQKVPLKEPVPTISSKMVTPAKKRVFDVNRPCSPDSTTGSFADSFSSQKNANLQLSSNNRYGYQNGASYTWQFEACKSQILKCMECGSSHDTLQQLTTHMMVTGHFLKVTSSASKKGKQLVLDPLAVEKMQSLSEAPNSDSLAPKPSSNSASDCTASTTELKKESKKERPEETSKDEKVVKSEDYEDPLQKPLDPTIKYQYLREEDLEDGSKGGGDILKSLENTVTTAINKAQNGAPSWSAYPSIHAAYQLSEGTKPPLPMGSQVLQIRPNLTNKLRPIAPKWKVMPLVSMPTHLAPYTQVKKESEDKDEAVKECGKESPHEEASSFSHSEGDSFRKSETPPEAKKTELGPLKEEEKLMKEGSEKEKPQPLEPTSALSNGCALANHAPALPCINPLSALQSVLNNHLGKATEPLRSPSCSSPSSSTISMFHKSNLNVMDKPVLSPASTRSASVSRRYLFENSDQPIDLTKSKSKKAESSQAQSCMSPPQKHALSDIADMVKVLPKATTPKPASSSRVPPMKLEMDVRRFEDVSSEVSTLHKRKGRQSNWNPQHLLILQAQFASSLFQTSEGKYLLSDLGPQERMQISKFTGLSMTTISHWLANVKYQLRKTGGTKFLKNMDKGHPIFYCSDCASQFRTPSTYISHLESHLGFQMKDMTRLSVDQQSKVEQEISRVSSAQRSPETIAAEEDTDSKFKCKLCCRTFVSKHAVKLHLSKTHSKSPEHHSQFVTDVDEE

T1 sequence (Q96A19 other isoform, or with tags, fused parts or gaps mutant limits assumed): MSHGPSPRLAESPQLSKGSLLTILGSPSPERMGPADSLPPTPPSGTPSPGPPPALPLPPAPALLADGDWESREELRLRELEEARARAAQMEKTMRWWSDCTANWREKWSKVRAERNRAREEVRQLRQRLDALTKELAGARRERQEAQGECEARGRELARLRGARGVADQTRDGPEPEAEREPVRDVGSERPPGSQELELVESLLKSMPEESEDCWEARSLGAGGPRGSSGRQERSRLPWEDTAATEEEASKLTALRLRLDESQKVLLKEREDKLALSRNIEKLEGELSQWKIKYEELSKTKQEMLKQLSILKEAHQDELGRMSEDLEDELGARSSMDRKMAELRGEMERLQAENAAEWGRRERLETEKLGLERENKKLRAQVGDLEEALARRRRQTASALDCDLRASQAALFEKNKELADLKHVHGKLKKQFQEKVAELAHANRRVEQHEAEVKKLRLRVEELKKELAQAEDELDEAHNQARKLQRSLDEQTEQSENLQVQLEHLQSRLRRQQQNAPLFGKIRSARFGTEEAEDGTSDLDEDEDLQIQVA

B1: THNS1003 (antibody, V domains shown)
VH: VVQLVESGGGLVQPGGSLRLSCAASGFTFNNYEMNWVRQAPGKGLEWVSYISSSGSTIYYADSVKGRFTISRDNAKNSLYLQMNSLRAEDTAVYYCARQMVTTRGYWGQGTLVTVSS
VL: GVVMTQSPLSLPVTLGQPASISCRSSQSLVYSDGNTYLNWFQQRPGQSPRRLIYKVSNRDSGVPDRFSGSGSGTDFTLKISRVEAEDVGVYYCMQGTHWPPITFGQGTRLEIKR
notes: detected with anti-human IgG Fc
B1: the binding result in experiment [1] and in experiment [2] was “binds” in each case.

B2: THNS1004 (antibody, V domains shown)
VH: EVQLVESGGGLVQPGGSLRLSCAASGFTFSSNWMSWVRQAPGKGLEWVANIKEDGSEKYYVDSVKGRFTIFRDNAKNSLYLQMNSLRAEDTAVYYCARVPSRYGRSRGAFDIWGQGTMVTVSS
VL: DIQMTQSPSSLSASVGDRVTITCRASQSISSYLNWYQQKPGKAPKLLIYAASSLQSGVPSRFSGSGSGTDFTLAISSLQPEDFATYYCHQTYSTRLTFGGGTEVEIKR
notes: as for B1
On to B2, for which, in experiment [3], the binding result is “binds”.

B3: THNS1006 (antibody, V domains shown)
VH: QVQLVESGGGVVQPGRSLRLSCAASGFTFSSYGMHWVRQAPGKGLEWVAIISYDGSNKYYADSVKGRFTISRDKSKNTLYLQMNSLRAEDTAVYYCAKSKGNYRDAMDVWGQGTTVTVSS
VL: SYVLTQPPSVSVAPGQTARITCGGNNIGSKSVHWYQQKPGQAPVLVVYDDSDRPSGIPERFSGSNSGNTATLTISRVEAGDEADYYCQVWDSSSDPWVFGGGTKLTVLG
notes: as for B1
B3: the binding result in experiment [4] and in experiment [5] was “binds” throughout.

B4: TESO1006 (antibody, V domains shown)
VH: QLHLQESGPGLVKPSETLSLTCTVSGGSVSSSSYYWGWVRQPPGKGLEWIGHVYYSGRTYYNPSLKSRATISLDTSKNQFSLKLSSLTATDTAVYYCATIVAAYSYGFEFDPWGQGILVIVSS
VL: QSVLTQPPSVSAAPGQKVTISCSGGSSNIGNNYVSWYQQLPGTAPKLIIYDNDKRPAGIPDRFSGSKSGSSATLGITGLQNGDEAEYYCGTWDSSLGGGVFGGGTKVTVLG
notes: as for B1
Regarding B4, the binding result in experiment [6] and in experiment [7] was “binds” each time.
